Results published in US9201073B2, “Methods and compositions for enhancing proteasome activity” (President and Fellows of Harvard College, priority 2007, dated 2015).
Substitutions are numbered along the chain they refer to. Names and notes keep the numbering of the source.

Tests used:
[1] = target: T1, Ubp6 (Saccharomyces cerevisiae, UniProt P43593); assay: Ub-AMC hydrolysis by Ubp6 treated with ubiquitin-vinyl sulfone; type: biochemical, yeast; conditions: Ub-VS 2.5 μM; Ub-AMC 0.5 μM
T1 construct: GST (N, cleaved yes); made in house; host or cells: bacteria (pGEX-4T-1, plasmid pDL74)
T1 sequence (P43593 1-499): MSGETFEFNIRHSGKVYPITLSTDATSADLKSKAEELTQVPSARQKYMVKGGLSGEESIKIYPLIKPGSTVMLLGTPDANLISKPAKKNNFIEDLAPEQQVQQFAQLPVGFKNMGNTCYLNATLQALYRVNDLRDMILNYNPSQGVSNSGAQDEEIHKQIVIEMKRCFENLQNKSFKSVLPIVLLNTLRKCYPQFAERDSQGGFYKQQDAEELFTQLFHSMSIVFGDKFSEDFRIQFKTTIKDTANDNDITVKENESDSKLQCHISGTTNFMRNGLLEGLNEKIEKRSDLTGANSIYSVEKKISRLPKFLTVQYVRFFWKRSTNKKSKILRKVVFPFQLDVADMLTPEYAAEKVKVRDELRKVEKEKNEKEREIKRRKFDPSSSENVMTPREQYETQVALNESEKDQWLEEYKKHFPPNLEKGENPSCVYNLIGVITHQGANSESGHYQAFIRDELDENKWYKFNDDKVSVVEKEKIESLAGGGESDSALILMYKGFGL
Description: FIG. 9A depicts the result of an in vitro ub-cyclin B assay carried out with ubp6Δ proteasomes (135 nM) supplemented with wild-type Ubp6 (540 nM) and ubiquitinvinyl sulfone (2.5 μM), as indicated. The lower panel is anti-Ubp6 immunoblot showing modification of Ubp6 by Ub-VS. Ubp6 was present in four-fold molar excess over proteasome, and thus only a fraction of Ubp6 protein was modified.
FIG. 9B depicts the results of Ub-AMC (0.5 μM) hydroylsis assay.
As an alternate approach to assay non-catalytic inhibition, ubiquitin-vinyl sulfone (Ub-VS), an irreversible active site inhibitor of Ubp6, was used. Residual Ub-AMC hyrdolyzing activity in the presence of Ubp6-Ub-VS is at the level of background in this assay. […] Indeed the large excess of substrate over Ubp6 (see Methods described in Example 1) is inconsistent with a model in which Ubp6 inhibits degradation by sequestering substrate. […] Although these functions are distinct, each requires both the Ubl domain and the C-terminal domain. The Ubl domain serves in both cases to target Ubp6 to the proteasome, and that both functions are obligatorily executed on the proteasome.

[2] = target: T2, ubp6Δ proteasomes (Saccharomyces cerevisiae, UniProt P30656+P43588); assay: In vitro ub-cyclin B deubiquitination/degradation assay with purified yeast proteasomes; type: biochemical; conditions: for inhibition of cyclin B degradation: ubp6Δ proteasomes 135 nM, recombinant Ubp6 or Usp14 species 540 nM, Ubl and Ubl-MBP 1.35 μM, preincubated 5 min, immunoblot
T2 construct: proteasomes purified from ubp6Δ mutants; TEV-ProA (TEV site + protein A), chromosomally integrated (C); made in house
Description: Proteasomes (135 nM) were incubated with ub-cyclin Bin the presence of 1 mM ATP and buffer (50 mM Tris [pH 7.51, 1 mM EDTA, 5 mM MgCl2) for the indicated times. Reactions were terminated by the addition of 5×SDS Laemmli loading buffer (Leggett, et al. (2002). Multiple associated proteins regulate proteasome structure and function. Mol. Cell. 10, 495-507) and boiled for 5 min. Where indicated, recombinant, purified Ubp6 or Usp14 species (540 nM) were preincubated with proteasomes for 5 min prior to the reaction. […] Unless otherwise noted, immunoblots were visualized with anti-cyclin B1 polyclonal antibodies. Polyclonal antibodies recognizing Ubp6, Rpn5, Rpn12, and ubiquitin were used as indicated. Ub-cyclin B was added in molar excess over proteasome, generally on the order of 25-fold, except for FIGS. 4C, 6A and 6B, where the substrate:enzyme ratio was increased by a factor of five.
In the experiments of FIGS. 1, 4 (except FIG. 4C), and 6C, time points were sampled after the preparation of a single reaction mixture. The zero time points therefore reflect a lag which represents the amount of time required to sample the first time point after having prepared the reaction mixture. […] In the experiments of FIGS. 2, 4C, and 6 (except 6C), each time point was carried out as an independent reaction. The zero time points were prepared in the presence of 5×LLB, and accordingly, no processing could occur before time zero.
Ubiquitination of cyclin B was carried out. Briefly, for each 30 μl reaction, Anaphase Promoting Complex (APC) was immunopurified from 600 μl of mitotic Xenopus egg extract with 12 μg of anti-Cdc27 antibodies (AF3.1, Santa Cruz Biotechnologies, Santa Cruz, Calif.) bound to 30 μl of Affiprep Protein A beads (Bio-Rad, Hercules, Calif.). Beads were washed three times with XB high salt (10 mM potassium HEPES pH 7.7, 500 mM KCl, 0.1 mM CaCl2, 1 mM MgCl2), two times with XB (same but with 100 mM KCl), and then three times into the reaction buffer (20 mM Tris pH 7.5, 100 mM KCl, 2.5 mM MgCl2, 2 mM ATP). Ubiquitination reactions contained immunoprecipitated APC on 30 μl of beads, and 30 μl of a mix containing recombinant MBP-human E1 at 200 μg/ml, histidine-tagged Ubc4 at 66 μg/ml, ubiquitin at 1.25 mg/ml, and 50 μg/ml of histidine-tagged cyclin B1/cdc2 complex expressed in baculovirus. Reactions were incubated for 90 minutes at 22° C. with agitation on a shaker at 1,000 RPM. Reaction supernatants were combined with the eluate from the wash of beads with 20 μl of reaction buffer. Reactions were either used fresh after preparation or frozen at −80° C. until use with purified proteasomes.

[3] = target: T3, proteasomes (Saccharomyces cerevisiae, UniProt P30656+P43588); assay: Proteasome-dependent hydrolysis of suc-LLVY-AMC; type: biochemical, yeast; conditions: o-PA treatment
T3 construct: A previously described procedure for purification of the proteasome; TEV-ProA (TEV site + protein A), chromosomally integrated (C); made in house
From the text: FIG. 1E is a graph depicting proteasome-dependent hydrolysis of suc-LLVY-AMC (SEQ ID NO: 1), a ubiquitin-independent fluorogenic proteasome substrate. Error bars reflect standard deviations.
The next studies were designed to determine whether the observed difference in cyclin B degradation was due specifically to Ubp6. Proteasomes were examined by Coomassie blue staining (FIG. 1D) and native gel electrophoresis, and no evidence for either an unexpected compositional difference or a gross structural abnormality in mutant proteasomes was found (see also Guterman and Glickman. (2004). Complementary roles for Rpn11 and Ubp6 in deubiquitination and proteolysis by the proteasome. J. Biol. Chem. 279, 1729-1738).

[4] = target: T2, ubp6Δ proteasomes; assay: Quantitation of proteasome inhibition by quantitative mass spectrometry of cyclin B; type: biochemical, yeast; conditions: 20-minute incubation
Description: A standard substrate degradation assay was carried out, and analyzed in parallel by SDS-PAGE followed by Coomassie blue staining and immunoblot with anti-cyclin B antibody. Immunoblots were used to identify and excise the cyclin B-containing regions of the Coomassie-stained gel, and the lanes were analyzed by mass spectrometry.
To quantify the extent of proteasome inhibition by Ubp6, a method of quantitative mass spectrometry was utilized. After a 20-minute incubation, approximately half of the total cyclin B was degraded by ubp6Δ proteasomes (FIG. 4C).

[5] = system: Ub-AMC; assay: Ub-AMC hydrolyzing activity of purified recombinant Ubp6 species; type: biochemical; conditions: purified recombinant enzyme 0.5 μM
Description: FIG. 8 is a graph depicting that the Ubp6-C118A mutant lacks deubiquitinating activity. Ub-AMC hydrolyzing activity of purified recombinant wild-type Ubp6 or Ubp6-C118A (0.5 μM). Ub-AMC, no enzyme control.

[6] = target: T4, RP purified from a ubp6Δ mutant (Saccharomyces cerevisiae, UniProt P43588); assay: Processing of ub-cyclin B by regulatory particle (RP); type: biochemical, yeast; conditions: RP 135 nM, four-fold molar excess of Ubp6 species
T4 construct: TEV-ProA (TEV site + protein A), chromosomally integrated (C); made in house
Description: FIGS. 6A and 6B depict the processing of ub-cyclin B by RP (ubp6Δ) in the presence or absence of purified Ubp6. Reactions were visualized by immunoblotting with anti-cyclin B antibody or anti-ubiquitin antibody, as indicated.
FIG. 12 is an illustration depicting the RP-mediated disassembly of Ub-cyclin B conjugates by Ubp6. Proteasome regulatory particle (135 nM) purified from a ubp6Δ strain was combined with a four-fold molar excess of Ubp6, Ubp6-ublΔ, or Ubp6-C118A, and Ub-Cyclin B, and incubated for the indicated times. Reactions were visualized by immunoblot with anti-ubiquitin antibody. *represents a non-ubiquitin immunoreactive band.
A previously described procedure for purification of the proteasome (Leggett, et al. (2002). Multiple associated proteins regulate proteasome structure and function. Mol. Cell. 10, 495-507) was modified by adding 1 mM ATP and 5 mM MgCl2 to all purification buffers, and by washing resins with 100 bed vol. of buffer containing 50 mM NaCl, as opposed to 50 bed vol. of buffer containing 100 mM NaCl. RP was purified in the presence of ATP and MgCl2 as described (Leggett et al., 2002).
Proteasomes (135 nM) were incubated with ub-cyclin Bin the presence of 1 mM ATP and buffer (50 mM Tris [pH 7.51, 1 mM EDTA, 5 mM MgCl2) for the indicated times. […]

[7] = target: T5, proteasome (Saccharomyces cerevisiae, UniProt P30656+P43588); assay: Ub-Cdc34 binding assay (electrophoretic mobility shift of proteasome); set-up: species or system yeast; conditions: proteasome 4 pmoles, ub-Cdc34 8 pmoles, Ubp6-C118A 8 pmoles
T5 construct: A previously described procedure for purification of the proteasome; TEV-ProA (TEV site + protein A), chromosomally integrated (C); made in house
Description: Binding of ubiquitinated-Cdc34 (8 pmoles) to proteasome (4 pmoles) was carried by native gel electrophoresis followed by overlay of the fluorogenic activity-based probe, suc-LLVY-AMC (SEQ ID NO: 1), as previously described (Elsasser, et al. (2004). Rad23 and Rpn10 serve as alternative ubiquitin receptors for the proteasome. J. Biol. Chem. 279, 26817-26822). Ubp6 or Ubp6-C118A (8 pmoles) were preincubated with proteasomes prior to substrate addition.

With ubiquitin-vinyl sulfone [Ub-VS] the “catalytic activity of wild-type Ubp6 as measured by Ub-AMC hydrolysis” value [1] was “completely eliminated”.

With `c1cnc2c(c1)ccc1cccnc12` [o-PA, o-phenanthroline, reference compound] the “deubiquitination and degradation of cyclin B” value ([2]; ubp6Δ proteasomes, o-PA 10 mM added 10 min prior to cyclin B) was “strongly inhibited” and the LLVY-hydrolysis by proteasomes [3] was “no effect”.

B1: Ubp6-C118A: catalytically inactive point mutant of Ubp6 (protein)
chain: T1 sequence (P43593 1-499) with C118A
B1 was tested, and the “inhibition of cyclin B degradation” value [2] was “competent for inhibition”, the “inhibition of degradation (cyclin B)” value [4] was “approximately 70%” and the “deubiquitinating activity against the model substrate Ub-AMC” value [5] was “completely devoid of deubiquitinating activity”. For the same molecule, the “processing of ub-cyclin B conjugates by RP” value [6] was “no effect on substrate processing” and the “conjugate (ubiquitinated Cdc34) binding to the proteasome” value [7] was “comparable conjugate binding”.

B2: Ubl: N-terminal ubiquitin-like domain of Ubp6 by itself (protein)
chain: MSGETFEFNIRHSGKVYPITLSTDATSADLKSKAEELTQVPSARQKYMVKGGLSGEESIKIYPLIKPGSTVMLLGTPDANLIS
For B2, the “inhibition of cyclin B degradation” value [2] was “no effect on cyclin B degradation”.
